Each block holds one binder with its values, some of them ahead of it.
Experiments:
TACC3 629–838 [1] = biological target: T1, TACC3 629–838 (human, UniProt Q9Y6A5 629-838); test: MST; NHS Red labelled TACC domain at 600 nM, H5 peptide 0–400 μM; 20 mM sodium phosphate, 50 mM NaCl, 2 mM DTT, 0.05% Tween, 0.02% NaN3; one-site specific binding model; details: both partners purified
T1 construct: human TACC3, TACC domain, residues 629-838; For MST the protein was fluorescently labelled via NHS coupling (NHS Red labelling kit, Nanotemper); Construct from Hood et al., 2013; also called TACC3 TACC domain; TACC3 TD; not shown: His, N-terminal, cleaved; NusA, N-terminal, cleaved

TACC3 629–838 [2] = biological target: T1, TACC3 629–838; test: pull-down; in vitro co-precipitation; His-NusA-ch-TOG 1817–1957 constructs immobilised on Nickel Sepharose, TACC3 629–838 added; binding of TACC3 resolved by western blot; details: both partners purified
[3] = biological target: the molecule itself; test: EPR (CW EPR and DEER); MTSL-labelled TACC3 proteins, 50 μM with 30% glycerol; CW EPR at 120 K, four-pulse DEER at 50 K
ch-TOG 1517–1957 = biological target: T2, ch-TOG 1517–1957 (human, UniProt Q14008 1517-1957); test: pull-down; in vitro co-precipitation; C-terminal His-tagged Affimers immobilised on Nickel Sepharose, incubated with TACC3 629–838 ∆699–765, ch-TOG 1517–1957 added; details: both partners purified
T2 construct: Construct from Hood et al., 2013; also called C-terminal domain of ch-TOG; not shown: His, N-terminal, cleaved; NusA, N-terminal, cleaved

Kd (TACC3 629–838 [1]): 17.3 µM
B1: synthetic ch-TOG H5 peptide (residues 1929–1947) (peptide)
peptide: EVGPSVYLERLKILRQRCG
notes: human ch-TOG/CKAP5 helix H5, residues 1929-1947; source: synthetic peptide

binding result (TACC3 629–838 [2]): binds
B2: His-NusA-ch-TOG 1817–1957 (domain or fragment)
chain: ASRIDEKSSKAKVNDFLAEIFKKIGSKENTKEGLAELYEYKKKYSDADIEPFLKNSSQFFQSYVERGLRVIEMEREGKGRISTSTGISPQMEVTCVPTPTSTVSSIGNTNGEEVGPSVYLERLKILRQRCGLDNTKQDDRP
notes: not shown: His, N-terminal, kept; NusA, N-terminal, kept

B3: TACC3 MTSL-C662 (domain or fragment)
chain: not shown
modifications: MTSL spin label on C662
notes: human TACC3 residues 629-838 with C749A and C828A; also called TACC3 629–838 C749A, C828A; source: E. coli BL21(DE3)RIL, purified, MTSL-labelled, SEC; not shown: His, N-terminal, cleaved; NusA, N-terminal, cleaved
binding result [3]: binds

binding result (ch-TOG 1517–1957): binds
B4: TACC3 629–838 ∆699–765 (domain or fragment)
chain: not shown
notes: human TACC3 residues 629-838 with residues 699-765 deleted; A version with a C-terminal biotinylated Avi-tag was used for Affimer panning and ELISA; also called TACC3 TD∆; not shown: His, N-terminal, cleaved; NusA, N-terminal, cleaved

Reference: paper PMC11921806, “Structural characterization and inhibition of the interaction between ch-TOG and TACC3” (The Journal of Cell Biology, 2025)
